Results on 1 molecule are retold here after patent publication US20030157712A1 (VANDERBILT UNIVERSITY, published 2003).

The experiment concerns the target T1, endogenous EphB2 receptor of HRMEC (human, UniProt P29323 19-1055).
T1 construct: whole, on cells; also called Nuk
T1 sequence (looked up): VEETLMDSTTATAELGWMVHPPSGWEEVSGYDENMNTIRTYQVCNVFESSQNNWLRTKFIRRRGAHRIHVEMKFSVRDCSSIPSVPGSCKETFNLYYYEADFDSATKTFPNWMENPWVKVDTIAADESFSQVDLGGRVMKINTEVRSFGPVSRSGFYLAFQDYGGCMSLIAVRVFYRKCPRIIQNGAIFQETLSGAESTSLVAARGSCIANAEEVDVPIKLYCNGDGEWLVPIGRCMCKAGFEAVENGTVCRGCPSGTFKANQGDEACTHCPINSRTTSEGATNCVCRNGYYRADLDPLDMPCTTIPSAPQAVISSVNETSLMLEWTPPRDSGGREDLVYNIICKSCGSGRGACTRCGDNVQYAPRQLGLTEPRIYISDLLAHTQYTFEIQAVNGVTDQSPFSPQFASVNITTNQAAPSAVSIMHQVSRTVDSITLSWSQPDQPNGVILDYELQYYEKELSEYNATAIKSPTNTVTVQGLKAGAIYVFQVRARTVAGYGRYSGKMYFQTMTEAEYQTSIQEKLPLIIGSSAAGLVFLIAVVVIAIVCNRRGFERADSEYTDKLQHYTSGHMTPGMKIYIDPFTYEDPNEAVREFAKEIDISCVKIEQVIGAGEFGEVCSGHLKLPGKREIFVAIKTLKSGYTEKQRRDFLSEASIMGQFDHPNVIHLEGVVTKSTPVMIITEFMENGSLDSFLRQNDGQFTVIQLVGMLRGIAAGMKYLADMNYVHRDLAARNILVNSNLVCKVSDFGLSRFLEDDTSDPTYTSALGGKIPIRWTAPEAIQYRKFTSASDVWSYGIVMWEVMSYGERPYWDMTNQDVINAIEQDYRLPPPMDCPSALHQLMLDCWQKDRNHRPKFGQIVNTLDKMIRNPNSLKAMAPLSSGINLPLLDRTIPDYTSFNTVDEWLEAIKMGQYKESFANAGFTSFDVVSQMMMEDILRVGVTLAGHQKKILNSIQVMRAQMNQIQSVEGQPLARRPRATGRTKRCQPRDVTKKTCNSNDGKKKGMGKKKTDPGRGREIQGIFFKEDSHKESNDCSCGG
Nature of the experiment: co-immunoprecipitation from HRMEC stimulated with dimeric or multimeric ephrin-B1/Fc, immunoblot. For orientation: A western blot detects proteins with antibodies after separation by electrophoresis.

Procedure: Ligand stimulation and immunoprecipitation of endogenous EphB receptors. Primary HRMEC were used at passages 3-6, as described (12). […] Ninety min prior to ligand stimulation, cells (2×10⁵cells/60 mm dish) were plated on Matrigel-(Collaborative Biomedical Products, Becton Dickinson, Bedford, Mass., as recommended) or fibronectin-coated (29) dishes. […] Cells were incubated with agonists at 37° C. for 10 min, or as described in the figure legends. Immunoprecipitations were conducted on either cell lysates (P19) or on Triticum vulgaris lectin affinity purified fractions of HRMEC (15) (needed to reduce the background from Matrigel). Precipitated proteins were analyzed by immunoblot (15).

B1: endogenous EphB1 receptor of human endothelial cells (HRMEC; HUVEC) (receptor, UniProt P54762 18-984, looked up)
chain: MEETLMDTRTATAELGWTANPASGWEEVSGYDENLNTIRTYQVCNVFEPNQNNWLLTTFINRRGAHRIYTEMRFTVRDCSSLPNVPGSCKETFNLYYYETDSVIATKKSAFWSEAPYLKVDTIAADESFSQVDFGGRLMKVNTEVRSFGPLTRNGFYLAFQDYGACMSLLSVRVFFKKCPSIVQNFAVFPETMTGAESTSLVIARGTCIPNAEEVDVPIKLYCNGDGEWMVPIGRCTCKPGYEPENSVACKACPAGTFKASQEAEGCSHCPSNSRSPAEASPICTCRTGYYRADFDPPEVACTSVPSGPRNVISIVNETSIILEWHPPRETGGRDDVTYNIICKKCRADRRSCSRCDDNVEFVPRQLGLTECRVSISSLWAHTPYTFDIQAINGVSSKSPFPPQHVSVNITTNQAAPSTVPIMHQVSATMRSITLSWPQPEQPNGIILDYEIRYYEKEHNEFNSSMARSQTNTARIDGLRPGMVYVVQVRARTVAGYGKFSGKMCFQTLTDDDYKSELREQLPLIAGSAAAGVVFVVSLVAISIVCSRKRAYSKEAVYSDKLQHYSTGRGSPGMKIYIDPFTYEDPNEAVREFAKEIDVSFVKIEEVIGAGEFGEVYKGRLKLPGKREIYVAIKTLKAGYSEKQRRDFLSEASIMGQFDHPNIIRLEGVVTKSRPVMIITEFMENGALDSFLRQNDGQFTVIQLVGMLRGIAAGMKYLAEMNYVHRDLAARNILVNSNLVCKVSDFGLSRYLQDDTSDPTYTSSLGGKIPVRWTAPEAIAYRKFTSASDVWSYGIVMWEVMSFGERPYWDMSNQDVINAIEQDYRLPPPMDCPAALHQLMLDCWQKDRNSRPRFAEIVNTLDKMIRNPASLKTVATITAVPSQPLLDRSIPDFTAFTTVDDWLSAIKMVQYRDSFLTAGFTSLQLVTQMTSEDLLRIGITLAGHQKKILNSIHSMRVQISQSPTAMA
notes: whole, on cells; In the co-precipitation entries the receptor was tyrosine phosphorylated after stimulation of the cells; also called ELK
With B1, the binding result was “no binding”.
